Measured values from patent publication US20100150860A1 (LUNAN PHARMACEUTICAL GROUP, published 2010).

Target: thrombin (of the antithrombin activity assay, species not stated)
Test: cell-based or functional assay

B1: TNHH-G15/n3, NIF-(Gly)15-FPRP-(GSGG)3-hirugen (other)
chain: MNEHNLRCPQNGTEMPGFNDSIRLQFLAMHNGYRSKLALGHISITEESESDDDDDFGFLPDFAPRASKMRYLEYDCEAEKSAYMSARNCSDSSSPPEGYDENKYIFENSNNISEAALKAMISWAKEAFNLNKTKEGEGVLYRSNHDISNFANLAWDAREKFGCAVVNCPLGEIDDETNHDGETYATTIHVVCHYPKINKTEGQPIYKVGTPCDDCSEYTKKADNTTSADPVCIPDDGVCFIGSKADYDSKEFYRFRELGGGGGGGGGGGGGGGFPRPGSGGGSGGGSGGNGDFEEIPEEYL
- antithrombin activity (ATU/mg): 1200 ATU/mg

B2: NIF-hirudin hybrid (NHH), NIF-(Gly)5-hirugen (other)
chain: NEHNLRCPQNGTEMPGFNDSIRLQFLAMHNGYRSKLALGHISITEESESDDDDDFGFLPDFAPRASKMRYLEYDCEAEKSAYMSARNCSDSSSPPEGYDENKYIFENSNNISEAALKAMISWAKEAFNLNKTKEGEGVLYRSNHDISNFANLAWDAREKFGCAVVNCPLGEIDDETNHDGETYATTIHVVCHYPKINKTEGQPIYKVGTPCDDCSEYTKKADNTTSADPVCIPDDGVCFIGSKADYDSKEFYRFRELGGGGGNGDFEEIPEEYL
- antithrombin activity (ATU/mg): 800 ATU/mg

Binder: NGDFEEIPEEYL (not fully specified) [hirugen (printed 'Hirogen')]
- antithrombin activity (ATU/mg): 1000 ATU/mg

B3: recombinant chimeric protein of neutrophil inhibitory factor and hirugen (TNHH), Met-NIF-GGGGG-FPRPGSGG-Hirugen (other)
chain: MNEHNLRCPQNGTEMPGFNDSIRLQFLAMHNGYRSKLALGHISITEESESDDDDDFGFLPDFAPRASKMRYLEYDCEAEKSAYMSARNCSDSSSPPEGYDENKYIFENSNNISEAALKAMISWAKEAFNLNKTKEGEGVLYRSNHDISNFANLAWDAREKFGCAVVNCPLGEIDDETNHDGETYATTIHVVCHYPKINKTEGQPIYKVGTPCDDCSEYTKKADNTTSADPVCIPDDGVCFIGSKADYDSKEFYRFRELGGGGGFPRPGSGGNGDFEEIPEEYL
- antithrombin activity (ATU/mg): 1200 ATU/mg
